Reference: patent publication US20040018971A1 (published 2004)

B1: HER2/neu peptide, position 1212, 10 amino acids (peptide)
peptide: AFSPAFDNLY
B2: HER2/neu peptide, position 1212, 11 amino acids (peptide)
peptide: AFSPAFDNLYY
B3: HER2/neu peptide, position 293, 9 amino acids (peptide)
peptide: ASCVTACPY
notes: also called Her2/neu.293
B4: HER2/neu peptide, position 997, 9 amino acids (peptide)
peptide: ASPLDSTFY
B5: HER2/neu peptide, position 334, 10 amino acids (peptide)
peptide: CSKPCARVCY
B6: HER2/neu peptide, position 1013, 11 amino acids (peptide)
peptide: DMGDLVDAEEY
B7: HER2/neu peptide, position 580, 11 amino acids (peptide)
peptide: EADQCVACAHY
notes: also called Her2/neu.580
B8: HER2/neu peptide, position 40, 11 amino acids (peptide)
peptide: ETHLDMLRHLY
notes: also called Her2/neu.40
B9: HER2/neu peptide, position 401, 9 amino acids (peptide)
peptide: ETLEEITGY
B10: HER2/neu peptide, position 390, 11 amino acids (peptide)
peptide: APLQPEQLQVF
B11: HER2/neu peptide, position 1129, 11 amino acids (peptide)
peptide: APLTCSPQPEY
B12: HER2/neu peptide, position 1204, 9 amino acids (peptide)
peptide: APQPHPPPA
B13: HER2/neu peptide, position 1204, 10 amino acids (peptide)
peptide: APQPHPPPAF
B14: HER2/neu peptide, position 1076, 10 amino acids (peptide)
peptide: APSEGAGSDV
B15: HER2/neu peptide, position 1076, 11 amino acids (peptide)
peptide: APSEGAGSDVF
B16: HER2/neu peptide, position 642, 10 amino acids (peptide)
peptide: CPAEQRASPL
notes: also called Her2/neu.642
B17: HER2/neu peptide, position 1032, 8 amino acids (peptide)
peptide: CPDPAPGA
B18: HER2/neu peptide, position 1032, 11 amino acids (peptide)
peptide: CPDPAPGAGGM
B19: HER2/neu peptide, position 626, 10 amino acids (peptide)
peptide: CPINCTHSCV
B20: HER2/neu peptide, position 315, 8 amino acids (peptide)
peptide: CPLHNQEV
B21: HER2/neu peptide, position 315, 10 amino acids (peptide)
peptide: CPLHNQEVTA
B22: HER2/neu peptide, position 600, 9 amino acids (peptide)
peptide: CPSGVKPDL
B23: HER2/neu peptide, position 600, 11 amino acids (peptide)
peptide: CPSGVKPDLSY
notes: also called Her2/neu.600
B24: HER2/neu peptide, position 299, 10 amino acids (peptide)
peptide: CPYNYLSTDV
B25: HER2/neu peptide, position 1034, 9 amino acids (peptide)
peptide: DPAPGAGGM
B26: HER2/neu peptide, position 1034, 10 amino acids (peptide)
peptide: DPAPGAGGMV
B27: HER2/neu peptide, position 384, 9 amino acids (peptide)
peptide: DPASNTAPL
B28: HER2/neu peptide, position 121, 9 amino acids (peptide)
peptide: DPLNNTTPV
B29: HER2/neu peptide, position 982, 8 amino acids (peptide)
peptide: DPQRFVVI
B30: HER2/neu peptide, position 1105, 8 amino acids (peptide)
peptide: DPSPLQRY
B31: HER2/neu peptide, position 698, 8 amino acids (peptide)
peptide: EPLTPSGA
B32: HER2/neu peptide, position 698, 9 amino acids (peptide)
peptide: EPLTPSGAM
B33: HER2/neu peptide, position 995, 10 amino acids (peptide)
peptide: GPASPLDSTF
B34: HER2/neu peptide, position 995, 11 amino acids (peptide)
peptide: GPASPLDSTFY
B35: HER2/neu peptide, position 578, 8 amino acids (peptide)
peptide: GPEADQCV
B36: HER2/neu peptide, position 578, 9 amino acids (peptide)
peptide: GPEADQCVA
B37: HER2/neu peptide, position 578, 11 amino acids (peptide)
peptide: GPEADQCVACA
B38: HER2/neu peptide, position 522, 8 amino acids (peptide)
peptide: GPGPTQCV
B39: HER2/neu peptide, position 246, 8 amino acids (peptide)
peptide: GPKHSDCL
B40: HER2/neu peptide, position 246, 11 amino acids (peptide)
peptide: GPKHSDCLACL
B41: HER2/neu peptide, position 1155, 9 amino acids (peptide)
peptide: GPLPAARPA
B42: HER2/neu peptide, position 1155, 11 amino acids (peptide)
peptide: GPLPAARPAGA
B43: HER2/neu peptide, position 524, 11 amino acids (peptide)
peptide: GPTQCVNCSQF
B44: HER2/neu peptide, position 564, 11 amino acids (peptide)
peptide: HPECQPQNGSV
B45: HER2/neu peptide, position 1208, 9 amino acids (peptide)
peptide: HPPPAFSPA
B46: HER2/neu peptide, position 1208, 10 amino acids (peptide)
peptide: HPPPAFSPAF
B47: HER2/neu peptide, position 926, 9 amino acids (peptide)
peptide: IPAREIPDL
B48: HER2/neu peptide, position 926, 10 amino acids (peptide)
peptide: IPAREIPDLL
B49: HER2/neu peptide, position 740, 9 amino acids (peptide)
peptide: IPDGENVKI
B50: HER2/neu peptide, position 740, 11 amino acids (peptide)
peptide: IPDGENVKIPV
B51: HER2/neu peptide, position 931, 11 amino acids (peptide)
peptide: IPDLLEKGERL
B52: HER2/neu peptide, position 748, 8 amino acids (peptide)
peptide: IPVAIKVL
B53: HER2/neu peptide, position 336, 8 amino acids (peptide)
peptide: KPCARVCY
B54: HER2/neu peptide, position 336, 10 amino acids (peptide)
peptide: KPCARVCYGL
notes: also called Her2/neu.336
B55: HER2/neu peptide, position 605, 9 amino acids (peptide)
peptide: KPDLSYMPI
notes: also called Her2/neu.605
B56: HER2/neu peptide, position 605, 10 amino acids (peptide)
peptide: KPDLSYMPIW
B57: HER2/neu peptide, position 921, 11 amino acids (peptide)
peptide: KPYDGIPAREI
B58: HER2/neu peptide, position 1157, 9 amino acids (peptide)
peptide: LPAARPAGA
B59: HER2/neu peptide, position 1157, 11 amino acids (peptide)
peptide: LPAARPAGATL
B60: HER2/neu peptide, position 35, 9 amino acids (peptide)
peptide: LPASPETHL
B61: HER2/neu peptide, position 35, 11 amino acids (peptide)
peptide: LPASPETHLDM
B62: HER2/neu peptide, position 419, 10 amino acids (peptide)
peptide: LPDLSVFQNL
B63: HER2/neu peptide, position 377, 10 amino acids (peptide)
peptide: LPESFDGDPA
B64: HER2/neu peptide, position 16, 10 amino acids (peptide)
peptide: LPPGAASTQV
B65: HER2/neu peptide, position 550, 8 amino acids (peptide)
peptide: LPREYVNA
B66: HER2/neu peptide, position 1120, 8 amino acids (peptide)
peptide: LPSETDGY
B67: HER2/neu peptide, position 1120, 9 amino acids (peptide)
peptide: LPSETDGYV
B68: HER2/neu peptide, position 1120, 10 amino acids (peptide)
peptide: LPSETDGYVA
B69: HER2/neu peptide, position 231, 11 amino acids (peptide)
peptide: LPTDCCHEQCA
B70: HER2/neu peptide, position 1101, 9 amino acids (peptide)
peptide: LPTHDPSPL
B71: HER2/neu peptide, position 65, 10 amino acids (peptide)
peptide: LPTNASLSFL
notes: also called Her2/neu.65
B72: HER2/neu peptide, position 282, 8 amino acids (peptide)
peptide: MPNPEGRY

Each binder was assayed against T1, HLA-A*0101 (human) (assay: competition with 125I-labelled probe peptide for purified HLA-A*0101, gel filtration; relative to standard peptide).
T1 construct: also called HLA-A1

Point of comparison: B5, “relative binding ratio (IC50 of standard peptide / IC50 of test peptide)” value 0.0016 relative binding ratio. Against it:
- B1 — lower, 0.001 relative binding ratio
- B2 — higher, 0.014 relative binding ratio
- B3 — higher, 0.055 relative binding ratio
- B4 — higher, 0.029 relative binding ratio
- B6 — higher, 0.0027 relative binding ratio
- B7 — higher, 0.1 relative binding ratio
- B8 — higher, 0.28 relative binding ratio
- B9 — higher, 0.043 relative binding ratio

These binders were tested against HLA-B*0702 (human) (assay: competition with 125I-labelled probe peptide for purified HLA, gel filtration).

Point of comparison: B42, relative binding ratio 0.016 ratio (IC50 of standard / IC50 of test peptide). Against it:
- B10 — lower, 0.0011 ratio (IC50 of standard / IC50 of test peptide)
- B11 — lower, < 0.0002 ratio (IC50 of standard / IC50 of test peptide)
- B12 — lower, 0.0056 ratio (IC50 of standard / IC50 of test peptide)
- B13 — higher, 0.053 ratio (IC50 of standard / IC50 of test peptide)
- B14 — lower, 0.0002 ratio (IC50 of standard / IC50 of test peptide)
- B15 — lower, 0.0006 ratio (IC50 of standard / IC50 of test peptide)
- B16 — higher, 0.15 ratio (IC50 of standard / IC50 of test peptide)
- B17 — lower, < 0.0002 ratio (IC50 of standard / IC50 of test peptide)
- B18 — lower, < 0.0002 ratio (IC50 of standard / IC50 of test peptide)
- B19 — lower, 0.0002 ratio (IC50 of standard / IC50 of test peptide)
- B20 — lower, < 0.0006 ratio (IC50 of standard / IC50 of test peptide)
- B21 — lower, 0.0001 ratio (IC50 of standard / IC50 of test peptide)
- B22 — lower, 0.014 ratio (IC50 of standard / IC50 of test peptide)
- B23 — higher, 0.03 ratio (IC50 of standard / IC50 of test peptide)
- B24 — lower, 0.0016 ratio (IC50 of standard / IC50 of test peptide)
- B25 — lower, 0.0001 ratio (IC50 of standard / IC50 of test peptide)
- B26 — lower, 0.0002 ratio (IC50 of standard / IC50 of test peptide)
- B27 — lower, 0.0004 ratio (IC50 of standard / IC50 of test peptide)
- B28 — lower, 0.0002 ratio (IC50 of standard / IC50 of test peptide)
- B29 — lower, < 0.0006 ratio (IC50 of standard / IC50 of test peptide)
- B30 — lower, < 0.0006 ratio (IC50 of standard / IC50 of test peptide)
- B31 — lower, < 0.0002 ratio (IC50 of standard / IC50 of test peptide)
- B32 — lower, 0.011 ratio (IC50 of standard / IC50 of test peptide)
- B33 — higher, 0.051 ratio (IC50 of standard / IC50 of test peptide)
- B34 — lower, 0.0036 ratio (IC50 of standard / IC50 of test peptide)
- B35 — lower, < 0.0006 ratio (IC50 of standard / IC50 of test peptide)
- B36 — lower, 0.0001 ratio (IC50 of standard / IC50 of test peptide)
- B37 — lower, < 0.0003 ratio (IC50 of standard / IC50 of test peptide)
- B38 — lower, < 0.0006 ratio (IC50 of standard / IC50 of test peptide)
- B39 — lower, 0.0092 ratio (IC50 of standard / IC50 of test peptide)
- B40 — lower, 0.0006 ratio (IC50 of standard / IC50 of test peptide)
- B41 — higher, 0.09 ratio (IC50 of standard / IC50 of test peptide)
- B43 — lower, 0.0005 ratio (IC50 of standard / IC50 of test peptide)
- B44 — lower, < 0.0002 ratio (IC50 of standard / IC50 of test peptide)
- B45 — lower, 0.0093 ratio (IC50 of standard / IC50 of test peptide)
- B46 — lower, 0.0018 ratio (IC50 of standard / IC50 of test peptide)
- B47 — lower, 0.0006 ratio (IC50 of standard / IC50 of test peptide)
- B48 — lower, 0.0004 ratio (IC50 of standard / IC50 of test peptide)
- B49 — lower, 0.0001 ratio (IC50 of standard / IC50 of test peptide)
- B50 — lower, 0.0023 ratio (IC50 of standard / IC50 of test peptide)
- B51 — lower, < 0.0002 ratio (IC50 of standard / IC50 of test peptide)
- B52 — lower, 0.012 ratio (IC50 of standard / IC50 of test peptide)
- B53 — lower, < 0.0006 ratio (IC50 of standard / IC50 of test peptide)
- B54 — higher, 0.037 ratio (IC50 of standard / IC50 of test peptide)
- B55 — higher, 0.072 ratio (IC50 of standard / IC50 of test peptide)
- B56 — lower, 0.0001 ratio (IC50 of standard / IC50 of test peptide)
- B57 — higher, 0.043 ratio (IC50 of standard / IC50 of test peptide)
- B58 — lower, 0.0027 ratio (IC50 of standard / IC50 of test peptide)
- B59 — lower, 0.014 ratio (IC50 of standard / IC50 of test peptide)
- B60 — lower, 0.0002 ratio (IC50 of standard / IC50 of test peptide)
- B61 — lower, < 0.0002 ratio (IC50 of standard / IC50 of test peptide)
- B62 — lower, 0.0003 ratio (IC50 of standard / IC50 of test peptide)
- B63 — lower, 0.0001 ratio (IC50 of standard / IC50 of test peptide)
- B64 — lower, 0.0002 ratio (IC50 of standard / IC50 of test peptide)
- B65 — lower, 0.0012 ratio (IC50 of standard / IC50 of test peptide)
- B66 — lower, < 0.0006 ratio (IC50 of standard / IC50 of test peptide)
- B67 — lower, 0.0002 ratio (IC50 of standard / IC50 of test peptide)
- B68 — lower, 0.0001 ratio (IC50 of standard / IC50 of test peptide)
- B69 — lower, < 0.0003 ratio (IC50 of standard / IC50 of test peptide)
- B70 — higher, 0.046 ratio (IC50 of standard / IC50 of test peptide)
- B71 — higher, 0.019 ratio (IC50 of standard / IC50 of test peptide)
- B72 — lower, < 0.0006 ratio (IC50 of standard / IC50 of test peptide)
